Source: paper PMC6327041, “Histone H3 binding to the PHD1 domain of histone demethylase KDM5A enables active site remodeling” (Nature Communications, 2019)

B1: unmodified H3 10mer effector peptide (H3 Ala1-Ser10) [not stated] / GST-PHD1 (S287-K347) of KDM5A [human] (parent)
chain 1: ARTKQTARKS
chain 2: SVNFVDLYVCMFCGRGNNEDKLLLCDGCDDSYHTFCLIPPLPDVPKGDWRCPKCVAEECSK

Variants of: B1
Experiment: competition-based fluorescence polarization assay
Conditions: with GST-PHD1 (S287-K347) of KDM5A [human]
chain 1 AATKQTARKS [chain 1 R2A] showed a Kd of 205 µM.
